# Laboratory results reported in patent US8114627.
# Experiments:
# [1] = molecular target: [Leu1, Thr2]-63-desulfo-hirudin (Lepirudin (Refludan)) (UniProt P01050)
# [2] = molecular target: sulfo-hirudin ([Leu1, Thr2]-hirudin with sulfotyrosine at position 63, expressed in E. coli) (UniProt P01050)
substance,measurement,setting,value
human α-thrombin (Diapharma),cleavage of the fluorogenic substrate by thrombin (fluorescence intensity over time),[1],"Cleavage of the fluorogenic substrate by thrombin, whose activity is inhibited to different degrees by sulfo-hirudin and desulfo-hirudin"
same,cleavage of the fluorogenic substrate by thrombin (fluorescence intensity over time),[2],"Cleavage of the fluorogenic substrate by thrombin, whose activity is inhibited to different degrees by sulfo-hirudin and desulfo-hirudin"
